Results reported in patent publication US20250122306A1 (SUTRO BIOPHARMA, published 2025).

T1: cynomolgus tissue factor on HEK293T-cynoTF cells (cynomolgus monkey, UniProt P13726 33-294 (human entry))
T1 construct: stably transfected HEK293T cells
T1 chain: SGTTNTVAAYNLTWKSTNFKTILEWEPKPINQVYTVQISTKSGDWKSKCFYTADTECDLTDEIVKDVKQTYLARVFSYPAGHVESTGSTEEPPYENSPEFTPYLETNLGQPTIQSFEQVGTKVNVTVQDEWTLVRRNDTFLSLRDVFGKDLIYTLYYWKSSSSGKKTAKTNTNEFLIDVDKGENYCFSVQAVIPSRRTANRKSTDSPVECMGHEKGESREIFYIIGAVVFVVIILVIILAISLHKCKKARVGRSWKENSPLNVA

T2: cynomolgus tissue factor (cynomolgus TF, Sino Bio #90885-C08H) (cynomolgus monkey, UniProt P13726 33-251 (human entry))
T2 construct: bought recombinant antigen; also called cyno TF
T2 chain: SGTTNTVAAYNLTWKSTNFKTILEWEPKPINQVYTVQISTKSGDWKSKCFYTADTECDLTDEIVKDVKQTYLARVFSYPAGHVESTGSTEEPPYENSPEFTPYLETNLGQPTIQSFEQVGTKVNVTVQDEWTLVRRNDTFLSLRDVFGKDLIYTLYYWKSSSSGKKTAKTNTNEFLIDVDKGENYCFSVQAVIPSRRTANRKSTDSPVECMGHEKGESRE


Experiments:
[1] = biological target: T1, cynomolgus tissue factor on …; experiment: flow cytometry on HEK293T-cynoTF cells, one-site fit of MFI
Description: (§1) HEK293T, BxPC3 cells (TF positive) and NCI-H1703 (TF negative) cells were obtained from ATCC (American Type Culture Collection) and maintained in DMEM: F12 (1:1), high glucose (Corning) supplemented with 10% heat-inactivated fetal bovine serum (ThermoScientific), 1× Penicillin/Streptomycin (Corning) and 2 mmol glutamax (Thermo Fisher Scientific). To generate cells that stably expressing human tissue factor (HEK293T-humanTF) or cynomolgus tissue factor (HEK293T-cynoTF), HEK293T cells were transfected with plasmid vectors that contain the corresponding protein sequence and stable clones were selected with puromycin.
(§2) For a fluorescence-activated cell sorting (FACS) cell-binding assay, cells were collected by Accutase and counted by the Vi-CELL Cell Viability Analyzersharvested and, then re-suspended in FACS buffer (DPBS buffer supplemented with 1% bovine serum albumin). A total of 200,000 cells in 100 μL were incubated on ice with 100 μL of anti-TF antibodies in each well of a 96-well plate. Cells were washed twice with ice-cold FACS buffer and then incubated on ice for 60 mins with 5 μg/mL Alexa 647-labeled donkey anti-human Fc antibody (Jackson ImmunoResearch). Unstained cells and cells stained with secondary antibody alone were used as controls. Cells were washed twice with FACS buffer and analyzed using a BD FACS Canto system. Geometric mean fluorescence intensities (MFI) were fitted using non-linear regression analysis with one site specific binding equation on GraphPad Prism (GraphPad Software; La Jolla, CA).

[2] = biological target: T3, human tissue factor on cells (human, UniProt P13726 33-295); experiment: flow cytometry on HEK293T-humanTF cells, one-site fit of MFI
T3 construct: cell-surface TF, transfected (HEK293T-humanTF) or endogenous (tumour lines, keratinocytes); the cell line is named under assay; also called HEK293T-humanTF; TF on BxPC3, primary human keratinocytes, NCI-H292, HCC1954, NCI-H1975
Description: as §1, §2

[3] = biological target: T4, human tissue factor (human TF, Lake Pharma) (human, UniProt P13726 33-251, limits assumed); experiment: Biacore SPR kinetics, antibody captured on anti-Fc, 1:1 Langmuir fit
T4 construct: bought recombinant antigen; also called CD142
Protocol: (§3) Anti-Fc polyclonal antibodies were immobilized onto a CM4 chip (Cytiva #BR100534) using amine coupling chemistry (Human Antibody Capture Kit, Cytiva #BR100839). The immobilization steps were carried out at a flow rate of 25 μL/min in 1×HBS-EP+buffer (Cytiva #BR100669). The sensor surfaces were activated for 7 min with a mixture of N-hydroxysuccinimide (NHS, 0.05 M) and 1-ethyl-3-(3-dimethylaminopropyl)-carbodiimide (EDC, 0.2 M). The anti-Fc polyclonal antibodies were injected over all 4 flow cells at a concentration of 25 μg/mL in 10 mM sodium acetate, pH 4.5, for 7 min. Ethanolamine (1 M, pH 8.5) was injected for 7 min to block any remaining activated groups.
(§4) Off-rate and kinetic binding experiments were performed at 25° C. using 1×HBS-EP+buffer. Antibodies were injected over the anti-Fc surface at a concentration of 3 μg/mL for 12 seconds at a flow rate of 10 μL/min on flow cells 2, 3 and 4, followed by a buffer wash for 30 seconds at the same flow rate. Single point off-rate analysis was carried out using an antigen concentration of 100 nM. […] After capturing ligand (antibody) on the anti-Fc surface, the analyte (human TF, Lake Pharma; cynomolgus TF, Sino Bio #90885-C08H; mouse TF, R&D Systems #3178-PA) was bound for 180 seconds, followed by a 420 second dissociation phase at a flow rate of […]. Between each ligand capture and analyte binding cycle, regeneration was carried out using 2 injections of 10 mM glycine pH 2.0 for 30 seconds at 30 μL/min, followed by a 30 second buffer wash step.
(§5) The data were fit with the Biacore T200 Evaluation software, using a 1:1 Langmuir binding model. KD (affinity, nM) was determined as a ratio of the kinetic rate constants calculated from the fits of the association and dissociation phases.

[4] = biological target: T2, cynomolgus tissue factor (cynomolgus …); experiment: as above
Protocol: as §3, §4, §5

Binder	Bmax (MFI) [1] [MFI]	Kd [1] [nM]	Bmax (MFI) [2] [MFI]	Kd [2] [nM]	Kd [3] [nM]	koff [3] [s⁻¹]	kon [3] [M⁻¹ s⁻¹]	Kd [4] [nM]	koff [4] [s⁻¹]	kon [4] [M⁻¹ s⁻¹]
mAb 49: aTF_2842-G04_HC2_Y180/F404TAG; aTF_2842-G04_LC2 (antibody, IgG1, V domains shown, non-natural amino acid (pAMF) at TAG sites Y180 and F404 (EU), * in the sequence, unconjugated full-length IgG1/kappa; also called 2842-G04 HC2/LC2) VH: QVQVQESGPGLVKPPGTLSLTCAVSGFSLSYYGVSWVRQPPGKGLEWIGTIDSSGRTYYNPSLKSRVTISNDNAPNTVSLKLSSVTAADTAVYYCARDFYGWNSGALDIWGQGTLVTVSS VL: DLQLTQSPSTLSASVGDRVTITCRASQSVYSNKYLSWYQQKPGKAPKLLIYKASTLASGVPSRFSGSGSGTEFTLTISSLQPDDFATYYCAAAYSDDSDTAFGQGTKVEIKR	465000	5.1	244000	1.4	13.8	0.000865	62500	29.9	0.00241	80800
mAb 46: aTF_2900-H09_HC_Y180/F404TAG_SerOpt; Trastuzumab LC SerOpt (antibody, human IgG1, kappa, V domains shown, non-natural amino acid (pAMF) at TAG sites Y180 and F404 (EU), * in the sequence, unconjugated full-length IgG1/kappa) VH: EVQLVESGGGLVQPGGSLRLSCAASGFTISDYVIHWVRQAPGKGLEWVGYIDPSNGYTYYADSVKGRFTISADTSKNTAYLQMNSLRAEDTAVYYCARDDQSISSPLDYWGQGTLVTVSS VL: not shown	483000	38	300000	0.93	6.24	0.00226	362000	41.6	0.00681	164000
mAb 42: aTF_2900-C11_HC_Y180/F404TAG_SerOpt; Trastuzumab LC SerOpt (antibody, human IgG1, kappa, V domains shown, non-natural amino acid (pAMF) at TAG sites Y180 and F404 (EU), * in the sequence, unconjugated full-length IgG1/kappa) VH: EVQLVESGGGLVQPGGSLRLSCAASGFTISQYWIHWVRQAPGKGLEWVGYIDPYNGYTYYADSVKGRFTISADTSKNTAYLQMNSLRAEDTAVYYCARDYGSWRIRLDYWGQGTLVTVSS VL: not shown	426000	16	275000	0.8	3.59	0.000674	188000	24.2	0.00309	128000
mAb 43: aTF_2900-F06_HC_Y180/F404TAG_SerOpt; Trastuzumab LC SerOpt (antibody, human IgG1, kappa, V domains shown, non-natural amino acid (pAMF) at TAG sites Y180 and F404 (EU), * in the sequence, unconjugated full-length IgG1/kappa) VH: EVQLVESGGGLVQPGGSLRLSCAASGFTISIYTIHWVRQAPGKGLEWVGYIDPSNGYTYYADSVKGRLTISADTSKNTAYLQMNSLRAEDTAVYYCARDPQSISSPFDYWGQGTLVTVSS VL: not shown	419000	21	253000	1.7	19.1	0.00594	311000	7.33	0.00231	316000
mAb 45: aTF_2900-H06_HC_Y180/F404TAG_SerOpt; Trastuzumab LC SerOpt (antibody, human IgG1, kappa, V domains shown, non-natural amino acid (pAMF) at TAG sites Y180 and F404 (EU), * in the sequence, unconjugated full-length IgG1/kappa) VH: EVQLVESGGGLVQPGGSLRLSCAASGFTIAAYIIHWVRQAPGKGLEWVGYIDPSNGYTYYADSVKGRFTISADTSKNTAYLQMNSLRAEDTAVYYCARDDQSFSSPFDYWGQGTLVTVSS VL: not shown	441000	7.5	302000	1.3	7.78	0.00426	547000	0.255	0.000309	1.21e+06
mAb 44: aTF_2900-F09_HC_Y180/F404TAG_SerOpt; Trastuzumab LC SerOpt (antibody, human IgG1, kappa, V domains shown, non-natural amino acid (pAMF) at TAG sites Y180 and F404 (EU), * in the sequence, unconjugated full-length IgG1/kappa) VH: EVQLVESGGGLVQPGGSLRLSCAASGFTIHDYVIHWVRQAPGKGLEWVGYIDPSNGYTYYADSVKGRFTISADTSKNTAYLQMNSLRAEDTAVYYCARDDQSISSPLDYWGQGTLVTVSS VL: not shown	429000	29	296000	0.9	5.42	0.00196	362000	18.9	0.00309	164000
mAb 47: aTF_2842-B01_HC3_Y180/F404TAG; aTF_2842-B01_LC1 (antibody, IgG1, V domains shown, non-natural amino acid (pAMF) at TAG sites Y180 and F404 (EU), * in the sequence, unconjugated full-length IgG1/kappa; also called 2842-B01 HC3/LC1) VH: EVQLVESGGGLVQPGGSLRLSCAASGFSISSYDMSWVRQAPGKGLEWIGIIGSNGRTYYPDSVKGRFTISRDNSKNTVTLQMNSLRAEDTAVYYCARGLYDGTGNIWGQGTLVTVSS VL: DLQMTQSPSSLSASVGDRVTITCRASQSVYGNNWLSWYQQKPGKAPKLLIYGASKLASGVPSRFSGSGSGTQFTLTISSLQPEDFATYYCQGTYYSGDWYFAFGQGTKVEIKR	501000	3.2	351000	3.3	7.81	0.000422	54000	20.1	0.00166	82700
mAb 48: aTF_2842-B01_HC1_Y180/F404TAG; aTF_2842-B01_LC3 (antibody, IgG1, V domains shown, non-natural amino acid (pAMF) at TAG sites Y180 and F404 (EU), * in the sequence, unconjugated full-length IgG1/kappa; also called 2842-B01 HC1/LC3) VH: QVQVVESGGGLVKPGGSLRLSCAASGFSISSYDMSWIRQAPGKGLEWIGIIGSNGRTYYADSVKGRFTISRNTNENTVYLQMNSLRAEDTAVYYCARGLYDGTGNIWGQGTLVTVSS VL: DIQMTQSPSSLSASVGDRVTITCQASQSVYGNNWLSWYQQKPGKAPKLLIYGASKLASGVPSRFSGSGSGTDFTLTISSLQPEDFATYYCQGTYYSGDWYFAFGGGTKVEIKR	486000	3.4	318000	2.3	17.4	0.00124	71200	60.7	0.00735	121000
